These results are taken from PMC11847536 (The Journal of Biological Chemistry, 2025).

Test [1] concerns the target T1, PRMT5/biotinylated WDR77 complex (UniProt O14744 1-637; Q9BQA1 1-342, biotin (site not stated)).
T1 construct: PRMT5 (protein arginine methyltransferase 5); Held by terbium-coupled streptavidin in the TR-FRET assay; copies: 4 + 4
The test is described as follows: FRET or BRET; TR-FRET equilibrium binding: adaptors labeled by BODIPY-maleimide titrated into PRMT5/biotinylated WDR77 incubated with terbium-coupled streptavidin. Conditions: both partners purified.

Test [2] deals with T1, PRMT5/biotinylated WDR77 complex. The test is described as follows: FRET or BRET; TR-FRET displacement: unlabeled pICln, RIOK1 and ΔPBM constructs titrated to displace BODIPY-labeled pICln tracer from PRMT5/WDR77. As to conditions: both partners purified.

T1 sequence (O14744 whole entry, chain 1 of 2): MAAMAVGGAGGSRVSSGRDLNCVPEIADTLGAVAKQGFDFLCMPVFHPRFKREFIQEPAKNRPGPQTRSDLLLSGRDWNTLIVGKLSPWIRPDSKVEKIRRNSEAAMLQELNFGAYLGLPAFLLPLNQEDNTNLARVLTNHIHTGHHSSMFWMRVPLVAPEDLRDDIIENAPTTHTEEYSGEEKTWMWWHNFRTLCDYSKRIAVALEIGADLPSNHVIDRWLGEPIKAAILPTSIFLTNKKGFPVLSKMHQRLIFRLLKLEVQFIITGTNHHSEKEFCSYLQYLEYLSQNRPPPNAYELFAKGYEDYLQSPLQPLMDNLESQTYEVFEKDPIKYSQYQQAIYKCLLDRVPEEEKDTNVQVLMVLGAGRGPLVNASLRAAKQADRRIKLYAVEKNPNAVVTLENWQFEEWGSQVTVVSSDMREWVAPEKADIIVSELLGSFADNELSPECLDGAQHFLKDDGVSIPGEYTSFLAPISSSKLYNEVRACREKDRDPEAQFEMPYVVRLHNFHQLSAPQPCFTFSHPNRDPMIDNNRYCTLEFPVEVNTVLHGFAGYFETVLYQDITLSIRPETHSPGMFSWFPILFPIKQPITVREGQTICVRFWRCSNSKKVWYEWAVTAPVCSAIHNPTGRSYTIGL
T1 sequence (Q9BQA1 whole entry, chain 2 of 2): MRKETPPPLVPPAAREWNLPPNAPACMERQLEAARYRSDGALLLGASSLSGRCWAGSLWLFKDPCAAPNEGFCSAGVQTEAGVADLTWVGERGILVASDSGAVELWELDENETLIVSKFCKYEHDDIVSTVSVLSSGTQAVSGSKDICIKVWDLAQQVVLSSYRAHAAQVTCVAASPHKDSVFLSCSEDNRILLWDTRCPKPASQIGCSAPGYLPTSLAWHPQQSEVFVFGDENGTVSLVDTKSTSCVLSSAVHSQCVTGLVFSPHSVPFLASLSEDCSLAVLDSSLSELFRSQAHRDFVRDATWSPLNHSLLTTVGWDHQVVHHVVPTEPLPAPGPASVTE

B1: BODIPY-labeled pICln (natural protein, UniProt P54105 1-237, looked up)
chain: MSFLKSFPPPGPAEGLLRQQPDTEAVLNGKGLGTGTLYIAESRLSWLDGSGLGFSLEYPTISLHALSRDRSDCLGEHLYVMVNAKFEEESKEPVADEEEEDSDDDVEPITEFRFVPSDKSALEAMFTAMCECQALHPDPEDEDSDDYDGEEYDVEAHEQGQGDIPTFYTYEEGLSHLTAEGQATLERLEGMLSQSVSSQYNMAGVRTEDSIRDYEDGMEVDTTPTVAGQFEDADVDH
modifications: BODIPY (labeled by BODIPY-maleimide; site not stated)
notes: pICln, PRMT5 substrate adaptor with a PBM peptide in its C-terminal region; also called BODIPY-pICln; source: LBSTR Escherichia coli (Kerafast, EC1002), purified
For B1, binding in test [1] was characterised by a dissociation constant (Kd) of 32.5 ± 3.8 nM.

B2: pICln (unlabeled) (natural protein, UniProt P54105 1-237, looked up)
chain: MSFLKSFPPPGPAEGLLRQQPDTEAVLNGKGLGTGTLYIAESRLSWLDGSGLGFSLEYPTISLHALSRDRSDCLGEHLYVMVNAKFEEESKEPVADEEEEDSDDDVEPITEFRFVPSDKSALEAMFTAMCECQALHPDPEDEDSDDYDGEEYDVEAHEQGQGDIPTFYTYEEGLSHLTAEGQATLERLEGMLSQSVSSQYNMAGVRTEDSIRDYEDGMEVDTTPTVAGQFEDADVDH
notes: pICln, PRMT5 substrate adaptor with a PBM peptide in its C-terminal region; Used free in the displacement assay and as a member of the 6S complex in the cryo-EM sample; only the PBM peptide is seen in the map; also called pICIn; source: LBSTR Escherichia coli (Kerafast, EC1002), purified
On to B2, for which, in test [2], the IC50 (as a rule, the point on the concentration scale where inhibition reaches its midpoint) came out at 69.5 ± 3.3 nM.
